From US20190106487A1 (Sanofi, published 2019)

Key:
mIL1RAcP-Fc [1] = target: T1, mIL1RAcP-Fc (murine, UniProt Q61730 21-359); assay: ELISA, primary supernatant, coated mu-IL-1RAcP-Fc
T1 construct: also called P013_04; P013-04
T1 sequence (looked up): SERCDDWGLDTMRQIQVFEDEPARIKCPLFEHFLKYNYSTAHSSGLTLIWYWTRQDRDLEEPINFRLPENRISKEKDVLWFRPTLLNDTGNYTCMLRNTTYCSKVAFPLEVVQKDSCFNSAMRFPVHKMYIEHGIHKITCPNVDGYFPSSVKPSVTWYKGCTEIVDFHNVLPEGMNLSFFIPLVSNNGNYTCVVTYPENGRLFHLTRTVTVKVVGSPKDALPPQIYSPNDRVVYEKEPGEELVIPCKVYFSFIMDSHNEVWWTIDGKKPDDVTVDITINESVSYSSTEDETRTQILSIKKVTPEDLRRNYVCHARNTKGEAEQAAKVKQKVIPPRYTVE

mIL1RAcP-Fc [2] = target: T1, mIL1RAcP-Fc; assay: ELISA, recombinant purified mAb
rhIL-1RAcP/Fc Chimera [3] = target: T2, rhIL-1RAcP/Fc Chimera (human, UniProt Q9NPH3 21-359); assay: ELISA, primary supernatant, coated hu-IL-1RAcP-Fc
T2 construct: also called P013_03; P013-03
T2 sequence (looked up): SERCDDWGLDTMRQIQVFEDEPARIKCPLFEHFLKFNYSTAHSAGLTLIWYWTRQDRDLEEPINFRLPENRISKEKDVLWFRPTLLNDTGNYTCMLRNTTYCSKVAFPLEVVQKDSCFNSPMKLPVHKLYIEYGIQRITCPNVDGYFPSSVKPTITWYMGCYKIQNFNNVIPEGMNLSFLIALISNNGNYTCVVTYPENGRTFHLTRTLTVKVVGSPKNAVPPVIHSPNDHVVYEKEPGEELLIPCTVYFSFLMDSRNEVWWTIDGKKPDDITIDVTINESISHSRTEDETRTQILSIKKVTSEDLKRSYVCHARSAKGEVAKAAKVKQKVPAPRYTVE
Procedure, shortened: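 Plates coated with 0.5 μg/mL Fc-tagged human IL-1RAcP; rabbit B-cell supernatant antibodies detected by peroxidase anti-rabbit IgG Fab2 and TMB, absorbance 450/620 nm. Parallel IL12Rβ1-Fc coating served as counterscreen to exclude tag binders.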

[4] = target: T3, human IL-1RAcP on 293T/17-FR cells (human, UniProt Q9NPH3 21-570); assay: cell-based or functional assay
T3 sequence (looked up): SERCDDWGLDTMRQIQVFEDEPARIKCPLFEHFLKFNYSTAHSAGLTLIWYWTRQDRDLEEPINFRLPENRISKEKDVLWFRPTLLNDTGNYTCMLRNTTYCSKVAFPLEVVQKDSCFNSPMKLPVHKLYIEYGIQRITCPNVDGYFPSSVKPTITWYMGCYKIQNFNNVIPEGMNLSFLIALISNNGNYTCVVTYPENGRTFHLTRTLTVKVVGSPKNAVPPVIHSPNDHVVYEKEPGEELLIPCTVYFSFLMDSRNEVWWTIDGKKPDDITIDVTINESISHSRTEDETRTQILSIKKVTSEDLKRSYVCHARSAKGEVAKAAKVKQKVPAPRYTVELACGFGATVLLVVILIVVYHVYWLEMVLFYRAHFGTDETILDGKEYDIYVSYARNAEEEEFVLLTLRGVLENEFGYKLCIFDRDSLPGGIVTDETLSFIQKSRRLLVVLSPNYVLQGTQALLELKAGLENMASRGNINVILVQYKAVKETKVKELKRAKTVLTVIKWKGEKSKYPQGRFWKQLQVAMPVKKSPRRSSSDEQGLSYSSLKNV

rhIL-1RAcP/Fc Chimera [5] = target: T2, rhIL-1RAcP/Fc Chimera; assay: ELISA, recombinant purified mAb

B1: P013.S.02.B.F05 (antibody, V domains shown)
VH: RSLEESGGDLVKPGTSLTLTCTASGFSFSGNYYMCWVRQAPGKGLEWIACIVVGSGGNTYYAGWAKRRFTISKTSSTTVTLQMTSLTAADTATYFCASGSYDDYGDYWYFTLWGQGTLVTVSS
VL: AIDMTQTPSPASAGVGDTVTINCQASENIYNFLAWYQQKPGHSPKLLIYVASKLASGVPSRFKGSGSGTQFTLTISDVQSDDAATYYCQQTYRYNDGDTAFGGGTEVVVK
notes: rabbit monoclonal antibody; also called P013.A.00109.B04
mIL1RAcP-Fc [1]
  mu-IL1RaP ELISA (OD): 0.4 OD
mIL1RAcP-Fc [2]
  EC50: 0.044 µg/mL
rhIL-1RAcP/Fc Chimera [3]
  hu-IL1RaP ELISA (OD): 0.1 OD
[4]
  functional reporter gene assay (% inhibition), 0.04 µg/mL mAb: 15%
  functional reporter gene assay (% inhibition), 0.2 µg/mL mAb: 5%
  functional reporter gene assay (% inhibition), 1 µg/mL mAb: 11%
  functional reporter gene assay (% inhibition), 5 µg/mL mAb: -2%
  primary supernatant functional assay (% inh.), NF-kB luciferase reporter: 40%

B2: P013.S.01.B.E05 (antibody, V domains shown)
VH: QSLEESGGDLVKPGASLTLTCTASGISFSSSDFMCWVRQAPGKGLEWIACIYAGSSVSIYYATWAKGRFTISKASSTTVTLQMASLTVADTATYFCARSTGSVGRGFNLWGQGTLVTVSS
VL: AQVLTQTPSPVSAAVGGTVTISCQASQSVYNSNHLSWYQQKPGQPPRLLIYSASTLASGVPSRFKGSGSGTQFTLTISGVQSDDAATYYCQGEFSCVSADCIAFGGGTEVVVK
notes: rabbit monoclonal antibody; also called P013.A.00086.F02
mIL1RAcP-Fc [1]
  mu-IL1RaP ELISA (OD): -0.1 OD
rhIL-1RAcP/Fc Chimera [5]
  EC50: 0.966 µg/mL
rhIL-1RAcP/Fc Chimera [3]
  hu-IL1RaP ELISA (OD): 3.6 OD
[4]
  functional reporter gene assay (% inhibition), 0.04 µg/mL mAb: 26%
  functional reporter gene assay (% inhibition), 0.2 µg/mL mAb: 61%
  functional reporter gene assay (% inhibition), 1 µg/mL mAb: 81%
  functional reporter gene assay (% inhibition), 5 µg/mL mAb: 93%
  primary supernatant functional assay (% inh.), NF-kB luciferase reporter: 98%

B3: P013.S.01.B.D04 (antibody, V domains shown)
VH: QEQLKESGGRLVTPGGSLTLTCTVSGFSLSIYAMGWFRQAPGKGLEWIGDIYPGSDSTWYASWAKGRFTISKTSTTVDLKITSPTTEDTATYFCAREIDAGYVGYGFDLWGQGTLVTVSS
VL: AQALTQTPSSVSAAVGGTVTINCQSSQSVYSDYLAWYQQKPGQSPKLLIYKASKLASGVPSRFKGSGSGTEFTLTISGVQSDDAATYYCQATYYSVGWYRAFGGGTEVVVK
notes: rabbit monoclonal antibody; also called P013.A.00088.B09
mIL1RAcP-Fc [1]
  mu-IL1RaP ELISA (OD): 0 OD
rhIL-1RAcP/Fc Chimera [5]
  EC50: 0.247 µg/mL
rhIL-1RAcP/Fc Chimera [3]
  hu-IL1RaP ELISA (OD): 3.9 OD
[4]
  functional reporter gene assay (% inhibition), 0.04 µg/mL mAb: 27%
  functional reporter gene assay (% inhibition), 0.2 µg/mL mAb: 67%
  functional reporter gene assay (% inhibition), 1 µg/mL mAb: 87%
  functional reporter gene assay (% inhibition), 5 µg/mL mAb: 89%
  primary supernatant functional assay (% inh.), NF-kB luciferase reporter: 95%

B4: P013.S.02.B.E01 (antibody, V domains shown)
VH: QSLEESGGRLVTPGTPLTLTCTVSGFSLSIYGMGWVRQAPGEGLEWIGSISSGGSTYYATWAKGRFTISKTSSTTLDLKITSPTTEDTATYFCVRSDGYTNGDYDTYFNLWGQGTLVTVS
VL: DIVMTQTPASVSEPVGGTVTIRCQASQSISSWLSWYQQKPGQPPKLLIYQASALASGVSSRFIGSGYGTEFTLTISGVQSEDAATYYCQCTYGIGSNSDYGVAFGGGTEVVVK
notes: rabbit monoclonal antibody; also called P013.A.00013.G07
mIL1RAcP-Fc [1]
  mu-IL1RaP ELISA (OD): -0.1 OD
rhIL-1RAcP/Fc Chimera [5]
  EC50: 0.137 µg/mL
rhIL-1RAcP/Fc Chimera [3]
  hu-IL1RaP ELISA (OD): 3.7 OD
[4]
  functional reporter gene assay (% inhibition), 0.04 µg/mL mAb: -6%
  functional reporter gene assay (% inhibition), 0.2 µg/mL mAb: 14%
  functional reporter gene assay (% inhibition), 1 µg/mL mAb: 56%
  functional reporter gene assay (% inhibition), 5 µg/mL mAb: 86%
  primary supernatant functional assay (% inh.), NF-kB luciferase reporter: 79%

B5: P013.S.02.B.E02 (antibody, V domains shown)
VH: QSVEESGGRLVTPGTPLTLTCTVSGFSLNVYNMGWVRQAPGKGLEYIGIISSSGTTYYASWAKGRFTISKTSSTTVDLKITSLTTEDTATYFCARADGYTEGDYATYFNLWGQGTLVTVSS
VL: DIVMTQTPASVSEPVGGTVTIKCQASQSITTWLAWYQQKPGQPPKLLIYQASALASGVSSRFIGSGYGTEFTLTISGVQSEDAATYYCQCTYGIGSGSSYGVAFGGGTEVVVK
notes: rabbit monoclonal antibody; also called P013.A.00087.E09
mIL1RAcP-Fc [1]
  mu-IL1RaP ELISA (OD): 0 OD
rhIL-1RAcP/Fc Chimera [5]
  EC50: 0.59 µg/mL
rhIL-1RAcP/Fc Chimera [3]
  hu-IL1RaP ELISA (OD): 3.3 OD
[4]
  functional reporter gene assay (% inhibition), 0.04 µg/mL mAb: 0%
  functional reporter gene assay (% inhibition), 0.2 µg/mL mAb: 14%
  functional reporter gene assay (% inhibition), 1 µg/mL mAb: 21%
  functional reporter gene assay (% inhibition), 5 µg/mL mAb: 68%
  primary supernatant functional assay (% inh.), NF-kB luciferase reporter: 85%

B6: P013.S.01.B.E03 (antibody, V domains shown)
VH: QSLEESGGRLVTPGTPLTLTCTASGFSITNYHISWVRQAPGKGLEWIGYIYAGRDFTYYANWAEGRFTISKTSTTVDLQVTVPTTEDTATYFCARDGGSPNWTLDLWGQGTLVTVSS
VL: DVVMTQTPASVSEPVGGTVTINCQASESISDYLSWYQQKPGQPPKLLIYRASTLESGVSSRFKGSGSGTQFTLTISDLESADAATYYCQSNYYDSRGNAFGGGTEVVVK
notes: rabbit monoclonal antibody; also called P013.A.00015.E03
mIL1RAcP-Fc [1]
  mu-IL1RaP ELISA (OD): 0.1 OD
rhIL-1RAcP/Fc Chimera [5]
  EC50: 0.05 µg/mL
rhIL-1RAcP/Fc Chimera [3]
  hu-IL1RaP ELISA (OD): 3.4 OD
[4]
  functional reporter gene assay (% inhibition), 0.04 µg/mL mAb: 54%
  functional reporter gene assay (% inhibition), 0.2 µg/mL mAb: 63%
  functional reporter gene assay (% inhibition), 1 µg/mL mAb: 60%
  functional reporter gene assay (% inhibition), 5 µg/mL mAb: 68%
  primary supernatant functional assay (% inh.), NF-kB luciferase reporter: 73%

B7: P013.S.01.B.B04 (antibody, V domains shown)
VH: QSVEESGGRLVTPGTPLTLTCTVSGIDLDNYAMGWVRQAPGKGLEYIGVISSDGFFYDASWAKGRFTISKASSTTVDLKMTGLTPEDTATYFCARDRGTSTGSLDLWGQGTLVTVSS
VL: ALVMTQTPASVSEPVGGTVTIKCQASENIGNGLAWYQQKPGQPPNLLIYGASTLASGVPSRFSGSGYGTEFTLTVSDLESGDAATYYCQCTYWNPDYIGGAFGGGTEVVVT
notes: rabbit monoclonal antibody; also called P013.A.00086.E02
mIL1RAcP-Fc [1]
  mu-IL1RaP ELISA (OD): 0.5 OD
rhIL-1RAcP/Fc Chimera [5]
  EC50: 0.042 µg/mL
rhIL-1RAcP/Fc Chimera [3]
  hu-IL1RaP ELISA (OD): 3.5 OD
[4]
  functional reporter gene assay (% inhibition), 0.04 µg/mL mAb: 42%
  functional reporter gene assay (% inhibition), 0.2 µg/mL mAb: 83%
  functional reporter gene assay (% inhibition), 1 µg/mL mAb: 93%
  functional reporter gene assay (% inhibition), 5 µg/mL mAb: 99%
  primary supernatant functional assay (% inh.), NF-kB luciferase reporter: 97%

B8: P013.S.02.B.D05 (antibody, V domains shown)
VH: QQQLVESGGGLVKPGASLTLTCKASGFSFSSGYYMCWVRQAPGKGLEWIACIGMGSGKTYYASWAKGRFTISKTSSTTVTLQMTSLTAADTATYFCARKDGSGNEHYNLWGPGTLVTVSS
VL: DIVMTQTPASVEAAVGGTVTIRCQASQSISSYLAWYQRKPGQPPKVLIYKASTLASGVSSRFKGSGSGTEYTLTISDLESADAATYYCQQGYASSGVDNVFGGGTEVVVK
notes: rabbit monoclonal antibody; also called P013.A.00086.B09
mIL1RAcP-Fc [1]
  mu-IL1RaP ELISA (OD): 3.3 OD
mIL1RAcP-Fc [2]
  EC50: 0.206 µg/mL
rhIL-1RAcP/Fc Chimera [3]
  hu-IL1RaP ELISA (OD): 3.2 OD
[4]
  functional reporter gene assay (% inhibition), 0.04 µg/mL mAb: 1%
  functional reporter gene assay (% inhibition), 0.2 µg/mL mAb: 19%
  functional reporter gene assay (% inhibition), 1 µg/mL mAb: 20%
  functional reporter gene assay (% inhibition), 5 µg/mL mAb: 13%
  primary supernatant functional assay (% inh.), NF-kB luciferase reporter: 42%
